Assay results: patent US8389680B2, “Treatment of Aspergillus infections with alpha thymosin peptides” (SciClone Pharmaceuticals, Inc., priority 2003, dated 2013)

Assays:
TLR4/CD14 = target: T1, TLR4/CD14 (Homo sapiens, UniProt O00206); test: IL-8 production by TLR4/CD14-transfected HEK293 cells; type: cell-based
T1 construct: expressed in transfected cells; host or cells: HEK293
Procedure: The human embryonic kidney cell line HEK293, wild type or stably transfected with human TLR2, TLR9 and TLR4/CD1427 were cultured in low glucose Dulbecco's modified Eagle's medium supplemented with 10% FCS, HEPES ([…]), L-glutamine ([…]), and gentamycin (50 microgram/ml). Transfectants were additionally supplemented with puromycin (100 microgram/ml). For stimulation experiments, cells were cultured at a density of 3 to 5×10^5 cells/wells in 12-well tissue culture plates overnight. Cells were washed and stimulated with 100 ng/ml TA1 either alone or together with TLR ligands for 5 h before the assessment of IL-8 production in the supernatants.
The levels of TNF-alpha, IL-10, IL-12 p70, IFN-alpha and IL-8 in culture supernatants were determined by Kit ELISAs. The detection limits (pg/ml) of the assays were <3 (human) and <32 (murine) for TNF-alpha, <12 (murine) and <5 (human) for IL-10, <16 (murine) and <3 (human) for IL-12 p70 and <25 (human) IL-8. For human IFN-alpha <3 ng/ml. For enumeration of cytokine-producing cells, an ELISPOT assay was used on purified CD4^+ T cells and DCs from lungs.

p38 and NF-kB = test: Analysis of p38 and NF-kB activation on lung DCs; type: cell-based, murine; conditions: peptide alone, 20 minutes
Procedure: P38 and NF-kB were activated on lung DCs by exposure for 20 minutes at 37° C. to Aspergillus conidia and/or 100 ng/ml TA1. Blots of cell lysates were incubated with rabbit polyclonal Abs recognizing either the unphosphorylated form of p38 MAPK, or the double-phosphorylated (Thr-180/Tyr-182) p38 MAPK, or Abs specific for the Rel A, 65 kDa DNA binding subunit of human NF-kB followed by horseradish peroxidase-conjugated goat anti-rabbit IgG, as per manufacturer's instructions. Blots were developed with an Enhanced Chemiluminescence detection kit. Bands were visualized after exposure of the blots to a Kodak RX film. To ensure similar protein loading in each lane, the phospho blots were stripped and the membranes were reprobed with Abs against p38 and NF-kB.

T1 sequence (O00206 24-839): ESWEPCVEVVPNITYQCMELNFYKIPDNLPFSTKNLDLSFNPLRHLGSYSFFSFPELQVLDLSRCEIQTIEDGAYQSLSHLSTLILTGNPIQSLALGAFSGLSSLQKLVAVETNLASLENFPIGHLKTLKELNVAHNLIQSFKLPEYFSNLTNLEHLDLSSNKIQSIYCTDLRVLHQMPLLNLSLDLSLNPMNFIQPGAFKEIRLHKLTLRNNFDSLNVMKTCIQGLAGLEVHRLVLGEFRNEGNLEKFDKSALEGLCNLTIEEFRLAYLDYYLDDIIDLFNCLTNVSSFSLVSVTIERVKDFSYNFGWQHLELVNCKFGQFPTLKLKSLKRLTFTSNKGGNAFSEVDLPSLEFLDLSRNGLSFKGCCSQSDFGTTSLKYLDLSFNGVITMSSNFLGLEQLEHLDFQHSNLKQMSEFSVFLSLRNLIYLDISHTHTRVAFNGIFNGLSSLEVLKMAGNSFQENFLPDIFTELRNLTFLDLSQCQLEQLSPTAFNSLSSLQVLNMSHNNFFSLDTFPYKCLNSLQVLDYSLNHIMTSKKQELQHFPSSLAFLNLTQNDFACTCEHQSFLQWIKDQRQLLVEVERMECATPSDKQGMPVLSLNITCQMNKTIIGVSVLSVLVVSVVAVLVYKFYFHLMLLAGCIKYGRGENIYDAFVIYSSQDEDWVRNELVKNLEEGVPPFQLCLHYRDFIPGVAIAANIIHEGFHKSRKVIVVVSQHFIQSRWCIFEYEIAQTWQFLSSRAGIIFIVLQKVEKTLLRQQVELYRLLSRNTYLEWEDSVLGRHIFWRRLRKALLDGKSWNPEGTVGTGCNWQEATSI

Ac-Ser-Asp-Ala-Ala-Val-Asp-Thr-Ser-Ser-Glu-Ile-Thr-Thr-Lys-Asp-Leu-Lys-Glu-Lys-Lys-Glu-Val-Glu-Glu-Ala-Glu-Asn-O (Ac-SDAAVDTSSEITTKDLKEKKEVEEAEN-OH) [TA1, naturally occurring thymic peptide]
production of IL-8 (TLR4/CD14; TA1 alone): did not induce | production of IL-8 (TLR4/CD14; in response to the TLR4 ligand LPS): did not induce | p38 phosphorylation (p38 and NF-kB): induced
